Results on six molecules are retold here after publication PMC3605791 (Nature structural & molecular biology, 2012).

Some results are limits rather than exact numbers.

Assay [1] concerns the target VAMP7 longin domain (Mus musculus) (UniProt P70280). The conditions noted are these: cited from earlier work.
The target in assay [2] is T1, Varp(658–921)His6 (human, UniProt Q96NW4 658-921). Briefly: pull-down.
Assay [3] concerns the target T1, Varp(658–921)His6. As to the kind of experiment: ITC.

T1 sequence (Q96NW4 658-921): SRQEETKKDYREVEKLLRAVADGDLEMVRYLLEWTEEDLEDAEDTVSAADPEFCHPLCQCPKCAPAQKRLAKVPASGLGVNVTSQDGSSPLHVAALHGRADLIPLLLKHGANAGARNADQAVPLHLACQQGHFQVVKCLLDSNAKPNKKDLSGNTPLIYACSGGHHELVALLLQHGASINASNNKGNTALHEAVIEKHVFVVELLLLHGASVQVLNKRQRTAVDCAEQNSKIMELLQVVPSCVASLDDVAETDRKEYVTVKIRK

Take Hrb (from UniProt P52594): the Kd in assay [1] is 10 µM.

In the case of “Varp (construct not stated, KD with Rab38:GTP or Rab32:GTP) (from UniProt Q96NW4 1-1050) (natural protein)”, the equilibrium dissociation constant (Kd) in the assay with Rab38:GTP or Rab32:GTP fell in the range of 2 to 5 µM.

B1: GSTVAMP7 residues 1–160 (domain or fragment)
chain: MAILFAVVARGTTILAKHAWCGGNFLEVTEQILAKIPSENNKLTYSHGNYLFHYICQDRIVYLCITDDDFERSRAFSFLNEVKKRFQTTYGSRAQTALPYAMNSEFSSVLAAQLKHHSENKSLDKVMETQAQVDELKGIMVRNIDLVAQRGERLELLIDK
For the molecule B1, the binding result with Varp(658–921)His6 [2] was “binds”.

B2: VAMP7 R72A (domain or fragment)
chain: MAILFAVVARGTTILAKHAWCGGNFLEVTEQILAKIPSENNKLTYSHGNYLFHYICQDRIVYLCITDDDFEASRAFSFLNEVKKRFQTTYGSRAQTALPYAMNSEFSSVLAAQLKHHSENKSLDKVMETQAQVDELKGIMVRNIDLVAQRGERLELLIDKTENLVDSSVTFKTTSRNLARAMCMKNIK
Take B2: the Kd in the assay with Varp(658–921)His6 [3] is more than 300 µM.

B3: VAMP7 D69A E71F S73D (domain or fragment)
chain: MAILFAVVARGTTILAKHAWCGGNFLEVTEQILAKIPSENNKLTYSHGNYLFHYICQDRIVYLCITDDAFFRDRAFSFLNEVKKRFQTTYGSRAQTALPYAMNSEFSSVLAAQLKHHSENKSLDKVMETQAQVDELKGIMVRNIDLVAQRGERLELLIDKTENLVDSSVTFKTTSRNLARAMCMKNIK
B3: the Kd in the assay with Varp(658–921)His6 [3] is more than 300 µM.

B4: VAMP7 CD (1–188) (domain or fragment)
chain: MAILFAVVARGTTILAKHAWCGGNFLEVTEQILAKIPSENNKLTYSHGNYLFHYICQDRIVYLCITDDDFERSRAFSFLNEVKKRFQTTYGSRAQTALPYAMNSEFSSVLAAQLKHHSENKSLDKVMETQAQVDELKGIMVRNIDLVAQRGERLELLIDKTENLVDSSVTFKTTSRNLARAMCMKNIK
Molecule B4 displayed a Kd in the assay with Varp(658–921)His6 [3] of 2.3 µM.
